Measurements taken from the DeepSol protein solubility set.

Test: soluble on expression in E. coli; label from the status in PepcDB or PDB records

| Sequence | soluble on expression in E. coli |
| --- | --- |
| MGSDKIHHHHHHMLLYIHGFNSSPFSDKAVITAKYMAQHHPSVIFHQPQLPNTPKAAMALLTTYVEAAIDAKEPLAYIGSSLGGYFASYLAETYGGKAVLVNPAVKPFELFDEFMGPQFNPYTEQHYLVVPEHKREVAEFNTAVIRNPDRFLVLLQTGDEVLDYREAVNKYHHCQLRIEAGGDHSFVGYESHLQTVSQFLHLP | not soluble |
| SLAANMYRVGDYVYFENSSSNPYLIRRIEELNKTASGNVEAKVVCFYRRRDISNTLIMLADKHAKEIEEESETTVEADLTDKQKHQLKHRELFLSRQYESLPATHIRGKCSVALLNETESVLSYLDKEDTFFYSLVYDPSLKTLLADKGEIRVGPRYQADIPEMLLEGESDEREQSKLEVKVWDPNSPLTDRQIDQFLVVARAVGTFARALD | soluble |
| MGSDKIHHHHHHMPYAVTLPEFTGPLDLLLRLIERAELDITTIALASVADQYLAHVRTLEEVEPRELAEFVSMAARLILIKSRALLPRSPTTPAEAGDEDAGQLVAQLELYRRFKQAAEVLRRWQDQGRSTFVRLAPPPLLPAPAPISYRITDLLHALERRRQLQLPLAQPEPIVLAPRLTVAEVAERIRARLERTAWFDFTDLLSNDPTTEEVIVSFWAMLELLKRRAIVVEQTMLFGPILIGRGTAPIVTEPADEDEL | not soluble |
| MAGDPMGNNNSTKESTHDNHSDSSTHEEMDHSGSADVPEGLQESKNPKYKVGSQVIINTSHMKGMKGAEATVTGAYDTTAYVVSYTPTNGGQRVDHHKWVIQEEIKDAGDKTLQPGDQVILEASHMKGMKGATAEIDSAEKTTVYMVDYTSTTSGEKVKNHKWVTEDELSAKLEHHHHHH | soluble |
| MANSMIFKAEGNQLIAERVFDAPRELVFKMFTEAEHLKNWWGPRGWDLTVCNIDFRPGGSWHFCMKCVDENQGDFYGYESWGKALYREIVDGEKIVYVDYFSDSEGNLSEEMPAAEITLTFIDLGGKTKIVNQVEYPSAEELQKGLDMGMEQGFTETWDRLVEYLQDIQLEHHHHHH | not soluble |
| GSHMASDLLELTEDMEKEISNALGHGPQDEILSSAFKLRITRGDIQTLKNYHWLNDEVINFYMNLLVERNKKQGYPALHVFSTFFYPKLKSGGYQAVKRWTKGVNLFEQEIILVPIHRKVHWSLVVIDLRKKCLKYLDSMGQKGHRICEILLQYLQDESKTKRNSDLNLLEWTHHSMKPHEIPQQLNGSDSGMFTCKYADYISRDKPITFTQHQMPLFRKKMVWEILHQQLL | soluble |
| MSRFRSLLQASVNATKKALTWNVEEWVPPAEKHIFKFHSKEDLKKWHLYSDSEYGGLSSASLEIPDKGDGSDCTGVFSGNLSVDLSEGSKWNISRSGFCGMRSKKFDGFIDLDGYDAIALRIRGDGRCYISTIYTENWVNSPGQSEDNSWQAFVFAPKDSWYTAKIPLARYLPTWRGNVIDVEMEMNPGRVLGMSLSVNAEGGAVGAKSGAGDFRVEIDWIKALRLP | soluble |
| MKIFVCEDDQRQREHMVSIIKNYIMIEEKPMELALATNDPYEVLEQSKELNDIGCYFLDIQLEADMNGIKLASEIRKHDPVGNIIFVTSHSELTYLTFVYKVAAMDFIFKDDPSELKMRIIDCLETAHTRLKLLSKESNVDTIELKRGSNSVYVQYDDIMFFESSTKSHRLIAHLDNRQIEFYGNLKELAQLDERFFRCHNSFVINRHNIESIDSKERIVYFKNGENCFASVRNVKKI | not soluble |
| MNMSRHDEFGGSTNKGPVQEHDVIMRGRRLLDITGVKQVESFDNEEFLLETVMGFLAIRGQNLQMKNLDVDKGVVSIKGRIFDLVYLDDHQEKAKGFFSKLFK | not soluble |
| SFSSLPLTGENPGAWALVRDNSAKGITAGSGSQQTTYDPTRTEAALTASTTFALRRYDLAGRALYDLDFSKLNPQTPTRDQTGQITFNPFGGFGLSGAAPQQWNEVKNKVPVEVAQDPSNPYRFAVLLVPRSVVYYEQLQRGLGLPQQRTESGQNTSTTGAMFGLKVKNAEADTAKSNEKLQGAEATGSSTTSGSGQSTQRGGSSGDTKVKALKIEVKKKSDSEDNGQLQLEKNDLANAPIKRSEESGQSVQLKADDFGTALSSSGSGGNSNPGSPTPWRPW | soluble |
| TLDEVKSLWDPRGISGTETASPQSDTPQAVSGASQPRWLRLSNGKQVDLRDWKVVLFMQGHCPYCHKFDPVLKQLAGQYGFSVFSYTIDGQGDDAFPEALPAPPDVMQTFFPNIPVATPTTFLVNVNTLAAYPILQGATDAQGFMARVDTVFQ | not soluble |
| MGSDKIHHHHHHMILNSRTIDDAKFFDKPILLFFTDENCKDCDTIYSKLQDSTIFSKYIGKKVNALEYIHYTIRLTRGMIPTITILSPTLDLLAVIESKDLKFIENKLRELLDEYKRRIVKGIKLEGYTPDPIEPTPSIIYETINKVIGGYEADTRMIEVYLTYTNVYKEYLKAKDKIKCSDDVARYLLEGKGEIKIDEKSSANVSMLVNYGVTSVQKLLDFIDINSGEVYRSKKKETKGILLDEALAGNALVSEYERTINEEYLSLAIKVADYIKNNLQHERGFRDIKEIDNITKVPYLEPISNSEASIFFSRLWNITGDETYKNLALKGLGSALGGALNNPKVIARAAIAYLKLFDSIKANRYLNIIDARITVVKNNGCNDSMLYYSGQCYSKIDEIQPTAF | not soluble |
| MSDMNNPADDNNGAMDDLWAEALSEQKSTSEKSAADAVFQQFGGGDVSGTLQDIDLIMDIPVKLTVELGRTRMTIKELLRLTQGSVVALDGLAGEPLDILINGYLIAQGEVVVVADKYGVRITDIITPSERMRRLSR | not soluble |
| MVMKQTKQTNILAGAAVIKVLEAWGVDHLYGIPGGSINSIMDALSAERDRIHYIQVRHEEVGAMAAAADAKLTGKIGVCFGSAGPGGTHLMNGLYDAREDHVPVLALIGQFGTTGMNMDTFQEMNENPIYADVADYNVTAVNAATLPHVIDEAIRRAYAHQGVAVVQIPVDLPWQQIPAEDWYASANSYQTPLLPEPDVQAVTRLTQTLLAAERPLIYYGIGARKAGKELEQLSKTLKIPLMSTYPAKGIVADRYPAYLGSANRAAQKPANEALAQADVVLFVGNNYPFAEVSKAFKNTRYFLQIDIDPAKLGKRHKTDIAVLADAQKTLAAILAQVSERESTPWWQANLANVKNWRAYLASLEDKQEGPLQAYQVLRAVNKIAEPDAIYSIDVGDINLNANRHLKLTPSNRHITSNLFATMGVGIPGAIAAKLNYPERQVFNLAGDGGASMTMQDLATQVQYHLPVINVVFTNCQYGFIKDEQEDTNQNDFIGVEFNDIDFSKIADGVHMQAFRVNKIEQLPDVFEQAKAIAQHEPVLIDAVITGDRPLPAEKLRLDSAMSSAADIEAFKQRYEAQDLQPLSTYLKQFGLDDLQHQIGQGGF | soluble |
| MKGLYPESVISRFDFAVTEDNKIKMLEFNSDTPTFIVECFQMNGKVCGNLGYDDPNSDQERLLSSGVTKAVMEATKGLDNPNVVFTAHHEHIEDWNTTMYLSQLCHVENKVVPMSELRITKDALVDKDGAKIDVLYRQTYPIEDLIEDQDPETGDLVGVELLQLVKAGKLFIINPLSAFLLQPKSIQCLIWGLAEEEAFYTNEEQQWIKEYMLPTYLEPDLFLGKGSFVQKPSFGREGDTITIRDKDENIMLQNAHQTYKASLPIFQKYIELPVVSLETEKGIEKLSYVFGSFLIAGKASSIGIRAGEKITGNESYYLPVGIKRRGKND | not soluble |
| MAQRYKRMSSTDINEYMPENLAKAIANPLFPALDSLLRAGRHVSSDDLDNHAFLSDFEPDLALFYQRYHTELVRAPEGFFYLRPRSTSLINRSVLSELDMLVGKVLCFLYLSPERLAHEGIFTNQELYDELLTLVEEKKLMKLVTNRASGSDLDREKLFEKVRTSLRRLRRLGMVITIGDTGKFRITEAVFRFGADVRLGGDVREAQLRLIRDGEAVVHTPEPSQQSLLENPTAEYDEEQTEWEDEALEHHHHHH | soluble |
| MKIGIIAAMPEELAYLVQHLDNTQEQVVLGNTYHTGTIASHEVVLVESGIGKVMSAMSVAILADHFQVDALINTGSAGAVAEGIAVGDVVIADKLAYHDVDVTAFGYAYGQMAQQPLYFESDKTFVAQIQESLSQLDQNWHLGLIATGDSFVAGNDKIEAIKSHFPEVLAVEMEGAAIAQAAHTLNLPVLVIRAMSDNANHEANIFFDEFIIEAGRRSAQVLLAFLKALD | soluble |
